Source: patent publication US20200282035A1 (MILTENYI BIOTEC B V, published 2020)

How the values were obtained:
CD142 [1] = molecular target: T1, CD142 (human, UniProt P13726 33-295); assay: scFv as binding domain of a CAR on T cells; told in words only, no direct binding assay
T1 construct: whole, on cells

CD73 [2] = molecular target: T2, CD73 (human, UniProt P21589 27-549); assay: as above
T2 construct: whole, on cells
T2 sequence (looked up): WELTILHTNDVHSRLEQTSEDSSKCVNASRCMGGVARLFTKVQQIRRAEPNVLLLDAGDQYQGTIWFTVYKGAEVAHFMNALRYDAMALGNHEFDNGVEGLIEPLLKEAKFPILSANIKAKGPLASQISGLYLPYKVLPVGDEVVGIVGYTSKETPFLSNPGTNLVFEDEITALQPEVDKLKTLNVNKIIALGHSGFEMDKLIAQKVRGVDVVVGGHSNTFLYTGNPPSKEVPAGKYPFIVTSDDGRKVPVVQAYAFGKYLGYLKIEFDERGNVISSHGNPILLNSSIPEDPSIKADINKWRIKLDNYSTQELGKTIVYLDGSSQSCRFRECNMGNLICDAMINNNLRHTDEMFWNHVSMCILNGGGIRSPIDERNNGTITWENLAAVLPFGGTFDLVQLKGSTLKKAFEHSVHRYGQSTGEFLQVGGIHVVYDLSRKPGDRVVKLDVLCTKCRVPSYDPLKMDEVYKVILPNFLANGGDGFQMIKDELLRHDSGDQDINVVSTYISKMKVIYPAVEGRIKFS

CD66c [3] = molecular target: T3, CD66c (human, UniProt P40199 35-320); assay: as above
T3 construct: whole, on cells
T3 sequence (looked up): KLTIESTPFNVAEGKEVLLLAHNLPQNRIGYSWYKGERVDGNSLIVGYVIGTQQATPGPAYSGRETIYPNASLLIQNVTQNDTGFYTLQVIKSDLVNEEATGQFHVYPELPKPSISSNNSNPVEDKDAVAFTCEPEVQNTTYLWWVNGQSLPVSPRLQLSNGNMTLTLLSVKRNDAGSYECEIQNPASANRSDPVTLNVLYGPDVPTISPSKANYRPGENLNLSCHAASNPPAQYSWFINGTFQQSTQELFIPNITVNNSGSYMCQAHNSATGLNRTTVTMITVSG

CD142 [4] = molecular target: T1, CD142; assay: antibody used for staining of human pancreatic cancer cells (flow cytometry, immunohistochemistry; Example 1); told in words only
CD318 = molecular target: T4, CD318 (human, UniProt Q9H5V8 30-836); assay: scFv as binding domain of a CAR on T cells; told in words only, no direct binding assay
T4 construct: whole, on cells
T4 sequence (looked up): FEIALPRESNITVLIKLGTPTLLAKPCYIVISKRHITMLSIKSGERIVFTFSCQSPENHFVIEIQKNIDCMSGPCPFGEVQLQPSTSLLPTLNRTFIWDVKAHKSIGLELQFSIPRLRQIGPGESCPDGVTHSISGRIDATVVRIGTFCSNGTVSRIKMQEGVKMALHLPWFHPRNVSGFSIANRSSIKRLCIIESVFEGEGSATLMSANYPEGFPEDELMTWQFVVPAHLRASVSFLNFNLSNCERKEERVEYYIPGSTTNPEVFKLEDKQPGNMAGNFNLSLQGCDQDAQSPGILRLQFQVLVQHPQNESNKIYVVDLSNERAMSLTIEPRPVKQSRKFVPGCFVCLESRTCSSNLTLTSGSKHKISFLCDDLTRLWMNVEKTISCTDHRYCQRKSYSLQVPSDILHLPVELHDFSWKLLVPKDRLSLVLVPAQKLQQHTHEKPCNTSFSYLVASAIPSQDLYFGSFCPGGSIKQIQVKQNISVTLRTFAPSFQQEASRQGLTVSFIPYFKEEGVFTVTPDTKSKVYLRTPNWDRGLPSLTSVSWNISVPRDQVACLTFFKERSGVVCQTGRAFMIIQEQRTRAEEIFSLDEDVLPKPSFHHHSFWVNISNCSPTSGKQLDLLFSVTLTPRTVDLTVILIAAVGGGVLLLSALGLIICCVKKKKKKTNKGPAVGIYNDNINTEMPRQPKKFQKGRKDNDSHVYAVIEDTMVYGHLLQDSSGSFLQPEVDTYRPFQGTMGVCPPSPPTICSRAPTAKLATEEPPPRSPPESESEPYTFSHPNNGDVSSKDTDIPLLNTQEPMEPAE

TSPAN8 = molecular target: T5, TSPAN8 (human, UniProt P19075 1-237); assay: as above
T5 construct: whole, on cells
T5 sequence (looked up): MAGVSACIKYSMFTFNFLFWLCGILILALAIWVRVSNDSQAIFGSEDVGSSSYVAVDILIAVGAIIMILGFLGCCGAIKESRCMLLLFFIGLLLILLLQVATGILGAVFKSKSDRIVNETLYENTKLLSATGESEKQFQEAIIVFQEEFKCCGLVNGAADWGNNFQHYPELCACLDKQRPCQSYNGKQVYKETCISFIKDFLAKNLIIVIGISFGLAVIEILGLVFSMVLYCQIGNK

CD73 [5] = molecular target: T2, CD73; assay: antibody used for staining of human pancreatic cancer cells (flow cytometry, immunohistochemistry; Example 1); told in words only
CD66c [6] = molecular target: T3, CD66c; assay: as above

B1: CD142 specific CAR sequence VH-linker-VL (scFv)
scFv: QVQLKQSGPGLVQPSQSLSITCTVSGFSLSNYGVHWVRQSPGKGLEWLGVIWSGGSTDYNVAFISRLIITKDNSKSQVFLKMNSLQADDTAIYFCARTTGSVFNAMDHWGQGTSVTVSSGGGGSGGGGSGGGGSQIVLTQSPALMSASPGEKVTMTCSASSSVTYMYWYQQKPRSSPKPWIYLTSNLASGVPARFSGSGSGTSYSLTISSVEAEDAATYYCQQWSSNPLTFGAGTKLELK
notes: not shown: hinge, transmembrane and signalling domains of the CAR
binding result (CD142 [1]): binds

B2: CD142 specific CAR sequence VL-linker-VH (scFv)
scFv: QIVLTQSPALMSASPGEKVTMTCSASSSVTYMYWYQQKPRSSPKPWIYLTSNLASGVPARFSGSGSGTSYSLTISSVEAEDAATYYCQQWSSNPLTFGAGTKLELKGGGGSGGGGSGGGGSQVQLKQSGPGLVQPSQSLSITCTVSGFSLSNYGVHWVRQSPGKGLEWLGVIWSGGSTDYNVAFISRLIITKDNSKSQVFLKMNSLQADDTAIYFCARTTGSVFNAMDHWGQGTSVTVSS
notes: as for B1
binding result (CD142 [1]): binds

B3: CD73 specific CAR sequence VH-linker-VL (scFv)
scFv: EVQLQQSGAELVKPGASVKLSCTASGFNIKDTYIHWVKQRPEQGLEWIGRIDPATGNTEYDPKFQGKATITADTSSNTAYLHLSSLTSEDTAVYYCARGYYGSSYPPWFAYWGQGTLVTVSAGGGGSGGGGSGGGGSDIVMTQSHKFMSTSVGDRVSITCKASQDVGSAVAWYQQKPGQSPKLLIYWASTRHTGVPDRFTGSGSGTDFTLTISNVQSEDLADYFCQQYSSYPLTFGAGTKLELK
notes: as for B1
binding result (CD73 [2]): binds

B4: CD73 specific CAR sequence VL-linker-VH (scFv)
scFv: DIVMTQSHKFMSTSVGDRVSITCKASQDVGSAVAWYQQKPGQSPKLLIYWASTRHTGVPDRFTGSGSGTDFTLTISNVQSEDLADYFCQQYSSYPLTFGAGTKLELKGGGGSGGGGSGGGGSEVQLQQSGAELVKPGASVKLSCTASGFNIKDTYIHWVKQRPEQGLEWIGRIDPATGNTEYDPKFQGKATITADTSSNTAYLHLSSLTSEDTAVYYCARGYYGSSYPPWFAYWGQGTLVTVSA
notes: as for B1
binding result (CD73 [2]): binds

B5: CD66c specific CAR sequence VH-linker-VL (scFv)
scFv: QVTLKESGPGILKPSQTLSLTCSFSGFSLSTSGMGVGWIRQPSGKSLEWLAHIWWNDERYYNPSLKNQLTISKDTSRNQVFLKITSVDTADTATYYCARSPRGYFDYWGHGTTLTVSSGGGGSGGGGSGGGGSDIVMTQSQKFMSTSVGDRVSVTCKASQNVVTNVAWYQQTPGQSPKALIYSASYRYSGVPDRFSGSGSGTDFTLTISNVQSGDLAEYFCQQYNSYPLTFGAGTKLELK
notes: as for B1
binding result (CD66c [3]): binds

B6: CD66c specific CAR sequence VL-linker-VH (scFv)
scFv: DIVMTQSQKFMSTSVGDRVSVTCKASQNVVTNVAWYQQTPGQSPKALIYSASYRYSGVPDRFSGSGSGTDFTLTISNVQSGDLAEYFCQQYNSYPLTFGAGTKLELKGGGGSGGGGSGGGGSQVTLKESGPGILKPSQTLSLTCSFSGFSLSTSGMGVGWIRQPSGKSLEWLAHIWWNDERYYNPSLKNQLTISKDTSRNQVFLKITSVDTADTATYYCARSPRGYFDYWGHGTTLTVSS
notes: as for B1
binding result (CD66c [3]): binds

B7: CD142 specific antibody (antibody, V domains shown)
VH: QVQLKQSGPGLVQPSQSLSITCTVSGFSLSNYGVHWVRQSPGKGLEWLGVIWSGGSTDYNVAFISRLIITKDNSKSQVFLKMNSLQADDTAIYFCARTTGSVFNAMDHWGQGTSVTVSS
VL: QIVLTQSPALMSASPGEKVTMTCSASSSVTYMYWYQQKPRSSPKPWIYLTSNLASGVPARFSGSGSGTSYSLTISSVEAEDAATYYCQQWSSNPLTFGAGTKLELK
notes: also called CD142 VH
binding result (CD142 [4]): binds

B8: CD318 specific CAR sequence VH-linker-VL (scFv)
scFv: EVQLQQSGAELVRPGALVKLSCKASGFNIKDYYIHWVKQRPEQGLEWIGWIDPENGHTIYDPKFQGKASITADTSSNTAYLQLSSLTSEDTAVYYCARLTGTTYAMDYWGQGTSVTVSSGGGGSGGGGSGGGGSDIVMTQSHKFMSTSVGDRVSITCKASQDVSTAVAWYQQKSGQSPKLLIYWASTRHTGVPDRFTGSGSGTDYTLTISSVQAEDLALYYCQQHYSTPYTFGGGTKLEIK
notes: as for B1
binding result (CD318): binds

B9: CD318 specific CAR sequence VL-linker-VH (scFv)
scFv: DIVMTQSHKFMSTSVGDRVSITCKASQDVSTAVAWYQQKSGQSPKLLIYWASTRHTGVPDRFTGSGSGTDYTLTISSVQAEDLALYYCQQHYSTPYTFGGGTKLEIKGGGGSGGGGSGGGGSEVQLQQSGAELVRPGALVKLSCKASGFNIKDYYIHWVKQRPEQGLEWIGWIDPENGHTIYDPKFQGKASITADTSSNTAYLQLSSLTSEDTAVYYCARLTGTTYAMDYWGQGTSVTVSS
notes: as for B1
binding result (CD318): binds

B10: TSPAN8 specific CAR sequence VH-linker-VL (scFv)
scFv: EVKLLESGGGLVQPGGSMRLSCAASGFTFTDFYMNWIRQPAGKAPEWLGFIRNKASGYTTEYNPSVKGRFTISRDNTQNMLYLQMNTLRAEDTATYYCARAHSYYGYDYFDYWGQGVMVTVSSGGGGSGGGGSGGGGSDIQMTQSPASLSASLEEIVTITCQASQDIGNWLSWYQQKPGKSPQLLIYGATSLADGVPSRFSGSRSGTQYSLKISRLQVEDIRIYYCLQAYSAPWTFGGGTKLELK
notes: as for B1
binding result (TSPAN8): binds

B11: TSPAN8 specific CAR sequence VL-linker-VH (scFv)
scFv: DIQMTQSPASLSASLEEIVTITCQASQDIGNWLSWYQQKPGKSPQLLIYGATSLADGVPSRFSGSRSGTQYSLKISRLQVEDIRIYYCLQAYSAPWTFGGGTKLELKGGGGSGGGGSGGGGSEVKLLESGGGLVQPGGSMRLSCAASGFTFTDFYMNWIRQPAGKAPEWLGFIRNKASGYTTEYNPSVKGRFTISRDNTQNMLYLQMNTLRAEDTATYYCARAHSYYGYDYFDYWGQGVMVTVSS
notes: as for B1
binding result (TSPAN8): binds

B12: CD73 specific antibody (antibody, V domains shown)
VH: EVQLQQSGAELVKPGASVKLSCTASGFNIKDTYIHWVKQRPEQGLEWIGRIDPATGNTEYDPKFQGKATITADTSSNTAYLHLSSLTSEDTAVYYCARGYYGSSYPPWFAYWGQGTLVTVSA
VL: DIVMTQSHKFMSTSVGDRVSITCKASQDVGSAVAWYQQKPGQSPKLLIYWASTRHTGVPDRFTGSGSGTDFTLTISNVQSEDLADYFCQQYSSYPLTFGAGTKLELK
notes: also called CD73 VH
binding result (CD73 [5]): binds

B13: CD66c specific antibody (antibody, V domains shown)
VH: QVTLKESGPGILKPSQTLSLTCSFSGFSLSTSGMGVGWIRQPSGKSLEWLAHIWWNDERYYNPSLKNQLTISKDTSRNQVFLKITSVDTADTATYYCARSPRGYFDYWGHGTTLTVSS
VL: DIVMTQSQKFMSTSVGDRVSVTCKASQNVVTNVAWYQQTPGQSPKALIYSASYRYSGVPDRFSGSGSGTDFTLTISNVQSGDLAEYFCQQYNSYPLTFGAGTKLELK
notes: also called CD66c VH
binding result (CD66c [6]): binds
